How the values were obtained:
LRA-12 [1] = biological target: T1, LRA-12 (uncultured bacterium BLR12, UniProt B5L5V5); assay: residual ertapenem hydrolysis, UV absorbance; assay type: biochemical
T1 construct: gene blaLRA-12; pET28a(+) in E. coli BL21(DE3), N-terminal His tag cut by thrombin; mature enzyme of 269 residues (Gln26-Asn306 in BBL numbering); di-zinc

LRA-12 [2] = biological target: T1, LRA-12; assay: competition with ceftazidime hydrolysis, UV absorbance; assay type: biochemical
[3] = test system: CC(=O)OCC1=C(C(=O)O)N2C(=O)[C@@H](NC(=O)Cc3cccs3)[C@H]2SC1; assay: purified protein; assay type: biochemical, uncultured bacterium BLR12; conditions: 10 mM HEPES, 20 mM NaCl, pH 7.5, room temperature
[4] = test system: CO/N=C(\C(=O)N[C@@H]1C(=O)N2C(C(=O)O)=C(COC(C)=O)CS[C@H]12)c1csc(N)n1; assay: purified protein; assay type: biochemical, uncultured bacterium BLR12; conditions: 10 mM HEPES, 20 mM NaCl, pH 7.5, room temperature
[5] = test system: CCN1CCN(C(=O)N[C@@H](C(=O)N[C@@H]2C(=O)N3[C@@H]2SC(C)(C)[C@@H]3C(=O)O)c2ccccc2)C(=O)C1=O; assay: purified protein; assay type: biochemical, uncultured bacterium BLR12; conditions: 10 mM HEPES, 20 mM NaCl, pH 7.5, room temperature
[6] = test system: C[C@@H](O)[C@H]1C(=O)N2C(C(=O)O)=C(S[C@@H]3CN[C@H](C(=O)Nc4cccc(C(=O)O)c4)C3)[C@H](C)[C@H]12; assay: purified protein; assay type: biochemical, uncultured bacterium BLR12; conditions: 10 mM HEPES, 20 mM NaCl, pH 7.5, room temperature
[7] = test system: C[C@@H](O)[C@H]1C(=O)N2C(C(=O)O)=C(S[C@@H]3CN[C@H](C(=O)N(C)C)C3)[C@H](C)[C@H]12; assay: purified protein; assay type: biochemical, uncultured bacterium BLR12; conditions: 10 mM HEPES, 20 mM NaCl, pH 7.5, room temperature
[8] = test system: C[C@@H](O)[C@H]1C(=O)N2C(C(=O)O)=C(SCCN=CN)C[C@H]12; assay: purified protein; assay type: biochemical, uncultured bacterium BLR12; conditions: 10 mM HEPES, 20 mM NaCl, pH 7.5, room temperature
[9] = test system: CC(C)(O/N=C(\C(=O)N[C@@H]1C(=O)N2C(C(=O)[O-])=C(C[n+]3ccccc3)CS[C@H]12)c1csc(N)n1)C(=O)O; assay: purified protein; assay type: biochemical, uncultured bacterium BLR12; conditions: 10 mM HEPES, 20 mM NaCl, pH 7.5, room temperature
[10] = test system: CO/N=C(\C(=O)N[C@@H]1C(=O)N2C(C(=O)[O-])=C(C[N+]3(C)CCCC3)CS[C@H]12)c1csc(N)n1; assay: purified protein; assay type: biochemical, uncultured bacterium BLR12; conditions: 10 mM HEPES, 20 mM NaCl, pH 7.5, room temperature
[11] = test system: CO/N=C(\C(=O)N[C@@H]1C(=O)N2C(C(=O)O)=C(COC(N)=O)CS[C@H]12)c1ccco1; assay: purified protein; assay type: biochemical, uncultured bacterium BLR12; conditions: 10 mM HEPES, 20 mM NaCl, pH 7.5, room temperature
[12] = test system: CO[C@@]1(NC(=O)Cc2cccs2)C(=O)N2C(C(=O)O)=C(COC(N)=O)CS[C@@H]21; assay: purified protein; assay type: biochemical, uncultured bacterium BLR12; conditions: 10 mM HEPES, 20 mM NaCl, pH 7.5, room temperature
[13] = test system: CC1(C)S[C@@H]2[C@H](NC(=O)Cc3ccccc3)C(=O)N2[C@H]1C(=O)O; assay: purified protein; assay type: biochemical, uncultured bacterium BLR12; conditions: 10 mM HEPES, 20 mM NaCl, pH 7.5, room temperature

T1 sequence (B5L5V5 entry or part of it): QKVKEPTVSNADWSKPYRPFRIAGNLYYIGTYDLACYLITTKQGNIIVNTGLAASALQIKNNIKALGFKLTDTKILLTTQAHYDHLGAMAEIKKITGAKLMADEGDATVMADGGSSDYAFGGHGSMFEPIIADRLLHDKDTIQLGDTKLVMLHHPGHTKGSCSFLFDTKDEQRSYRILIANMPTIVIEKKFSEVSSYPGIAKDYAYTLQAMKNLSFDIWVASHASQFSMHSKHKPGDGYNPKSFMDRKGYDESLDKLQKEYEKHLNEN

O=C(O)c1cccc(C(=O)O)n1 [DPA, pyridine-2,6-dicarboxylic acid]
IC50 (LRA-12 [1]): 460 µM

C[C@H]1[C@H](NC(=O)/C(=N\OC(C)(C)C(=O)O)c2csc(N)n2)C(=O)N1S(=O)(=O)O [aztreonam]
Ki (LRA-12 [2]): 146 µM

LRA-12 (uncultured bacterium BLR12)
Km [3]: 11 ± 2 µM | kcat [3]: 18 ± 0.8 s⁻¹ | kcat/Km [3]: 1.64e+06 ± 370000 M⁻¹ s⁻¹ | Km [4]: 36 ± 4 µM | kcat [4]: 7 ± 0.3 s⁻¹ | kcat/Km [4]: 190000 ± 30000 M⁻¹ s⁻¹ | Km [5]: 83 ± 9 µM | kcat [5]: 74 ± 3 s⁻¹ | kcat/Km [5]: 890000 ± 130000 M⁻¹ s⁻¹ | Km [6]: 43 ± 6 µM | kcat [6]: 57 ± 4 s⁻¹ | kcat/Km [6]: 1.33e+06 ± 270000 M⁻¹ s⁻¹ | Km [7]: 113 ± 20 µM | kcat [7]: 95 ± 11 s⁻¹ | kcat/Km [7]: 840000 ± 230000 M⁻¹ s⁻¹ | Km [8]: 39 ± 7 µM | kcat [8]: 66 ± 5 s⁻¹ | kcat/Km [8]: 1.69e+06 ± 420000 M⁻¹ s⁻¹ | Km [9]: 59 ± 8 µM | kcat [9]: 12 ± 0.8 s⁻¹ | kcat/Km [9]: 200000 ± 40000 M⁻¹ s⁻¹ | Km [10]: 93 ± 13 µM | kcat [10]: 15 ± 1.4 s⁻¹ | kcat/Km [10]: 160000 ± 40000 M⁻¹ s⁻¹ | Km [11]: 20 ± 3.4 µM | kcat [11]: 16 ± 0.9 s⁻¹ | kcat/Km [11]: 800000 ± 190000 M⁻¹ s⁻¹ | Km [12]: 4 ± 0.6 µM | kcat [12]: 7 ± 0.4 s⁻¹ | kcat/Km [12]: 1.75e+06 ± 320000 M⁻¹ s⁻¹ | Km [13]: 47 ± 4 µM | kcat [13]: 70 ± 2 s⁻¹ | kcat/Km [13]: 1.49e+06 ± 150000 M⁻¹ s⁻¹

O=C(O)CN(CCN(CC(=O)O)CC(=O)O)CC(=O)O [EDTA]
IC50 (LRA-12 [1]): 113 µM

From article PMC5531557, “Crystal structure and kinetic analysis of the class B3 di-zinc metallo-β-lactamase LRA-12 from an Alaskan soil metagenome” (PLoS ONE, 2017)
